Test results published in paper PMC2819048.
Positions count from the first letter of the chain named.

Assays:
Assay in all cases: SPR
[1] = molecular target: T1, DnaC R216A (Escherichia coli, UniProt P0AEF0 1-245, R216A)
T1 sequence: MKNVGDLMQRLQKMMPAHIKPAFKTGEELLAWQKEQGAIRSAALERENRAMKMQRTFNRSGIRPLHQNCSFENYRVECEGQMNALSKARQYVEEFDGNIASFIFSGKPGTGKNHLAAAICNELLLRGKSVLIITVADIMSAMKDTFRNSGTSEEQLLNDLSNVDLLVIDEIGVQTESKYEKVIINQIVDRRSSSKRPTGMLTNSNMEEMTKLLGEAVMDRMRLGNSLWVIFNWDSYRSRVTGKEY

[2] = molecular target: T2, DnaC R220A (Escherichia coli, UniProt P0AEF0 1-245, R220A)
T2 sequence: T1 sequence with A216R, R220A

[3] = molecular target: T3, DnaC (Escherichia coli, UniProt P0AEF0 1-245)
T3 sequence: T1 sequence with A216R

CATCCAATAAATCATACACAAGGC (ssDNA) [5'-biotinylated oligonucleotide] was tested, and the binding result [1] was “binds”, the binding signal [2] was 1.7 fold stronger than without ATP and the binding signal [3] was ~2.4 fold stronger than without ATP.
